The target in assay [1] is T1, light-activated and phosphorylated rhodopsin in rod outer segment membranes (P-ROS*) (UniProt P02699 1-348, phosphorylated by endogenous GRK1: mixture of species with up to seven phosphate groups per molecule, sites not stated).
T1 construct: rhodopsin, endogenous in native rod outer segment (ROS) disc membranes (isolated membranes, not whole cells); also called ROS-P*; source: rod outer segment disc membranes isolated from native source; phosphorylated by endogenously available GRK1; illuminated
Put plainly: pull-down; 1.5 µg purified arrestin-1-mCherry and 15 µg (rhod-)opsin in native ROS membranes, 50 µl, 100 mM Hepes pH 7.0, 100 mM NaCl, 1 mM DTT, 0.1 mM EDTA; P-ROS* and ROS* illuminated 2.5 min (495 nm long-pass), others kept dark; centrifuged at 4 °C, pellet washed, mCherry fluorescence. Conditions: one partner purified.

Assay [2] has as its target T1, light-activated and phosphorylated …. Put plainly: pull-down; cleared bacterial lysate with arrestin-mCherry mixed with ROS-P* membranes; 10 mM Hepes pH 7.0, 1 mM DTT, 1 mM MgCl2, 0.1 mM EDTA, NaCl from 100 mM to 3.949 M; 37 °C, 5 min incubation, light activated 6 min; membranes pelleted, washed, mCherry fluorescence of the pellet; IC50 of NaCl for complex formation. Particulars: partners not purified.

For assay [3] the target is unchanged. The assay is described as above. Conditions: partners not purified. The source holds these as a separate data set.

This note sets out measurements from paper PMC6346018 (Scientific Reports, 2019).

T1 sequence (P02699 whole entry): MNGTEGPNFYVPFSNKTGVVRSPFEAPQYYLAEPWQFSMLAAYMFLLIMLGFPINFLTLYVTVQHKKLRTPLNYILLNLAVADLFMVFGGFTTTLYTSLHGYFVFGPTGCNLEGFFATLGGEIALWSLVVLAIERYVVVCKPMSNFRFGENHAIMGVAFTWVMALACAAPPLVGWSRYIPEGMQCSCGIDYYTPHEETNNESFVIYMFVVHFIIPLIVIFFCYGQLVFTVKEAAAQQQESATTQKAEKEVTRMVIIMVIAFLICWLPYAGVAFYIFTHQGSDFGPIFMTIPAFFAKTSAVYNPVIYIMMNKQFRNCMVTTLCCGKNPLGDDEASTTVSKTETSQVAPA

B1: arrestin-1-mCherry-Strep-tag double mutant T304A + F375A, HEK293-expressed and purified (natural protein, bovine, UniProt P08168 1-404, looked up)
chain: MKANKPAPNHVIFKKISRDKSVTIYLGKRDYIDHVERVEPVDGVVLVDPELVKGKRVYVSLTCAFRYGQEDIDVMGLSFRRDLYFSQVQVFPPVGASGATTRLQESLIKKLGANTYPFLLTFPDYLPCSVMLQPAPQDVGKSCGVDFEIKAFATHSTDVEEDKIPKKSSVRLLIRKVQHAPRDMGPQPRAEASWQFFMSDKPLRLAVSLSKEIYYHGEPIPVTVAVTNSTEKTVKKIKVLVEQVTNVVLYSSDYYIKTVAAEEAQEKVPPNSSLTKTLTLVPLLANNRERRGIALDGKIKHEDANLASSTIIKEGIDKTVMGILVSYQIKVKLTVSGLLGELTSSEVATEVPFRLMHPQPEDPDTAKESFQDENAVFEEFARQNLKDAGEYKEEKTDQEAAMDE
notes: arrestin-1 (visual arrestin), bovine, UniProt P08168; also called T304A + F375A double mutant; source: HEK293, transiently transfected (pcDNA3.1), one-step purified (Strep-Tactin); not shown: mCherry, C-terminal, kept
Turning to B1, the “activity level relative to WT” value in assay [1] came out at 106%.

B2: arrestin-1-mCherry double mutant T304A + F375A, bacterial lysate (natural protein, bovine, UniProt P08168 1-404, looked up)
chain: MKANKPAPNHVIFKKISRDKSVTIYLGKRDYIDHVERVEPVDGVVLVDPELVKGKRVYVSLTCAFRYGQEDIDVMGLSFRRDLYFSQVQVFPPVGASGATTRLQESLIKKLGANTYPFLLTFPDYLPCSVMLQPAPQDVGKSCGVDFEIKAFATHSTDVEEDKIPKKSSVRLLIRKVQHAPRDMGPQPRAEASWQFFMSDKPLRLAVSLSKEIYYHGEPIPVTVAVTNSTEKTVKKIKVLVEQVTNVVLYSSDYYIKTVAAEEAQEKVPPNSSLTKTLTLVPLLANNRERRGIALDGKIKHEDANLASSTIIKEGIDKTVMGILVSYQIKVKLTVSGLLGELTSSEVATEVPFRLMHPQPEDPDTAKESFQDENAVFEEFARQNLKDAGEYKEEKTDQEAAMDE
notes: arrestin-1 (visual arrestin), bovine, UniProt P08168; not shown: mCherry, C-terminal, kept
For the molecule B2, the “IC50 of NaCl for complex formation” value in assay [2] is 1.51 M. Further, in assay [3], the “IC50 of NaCl relative to WT” value came out at 502%.
